Results on 2 substances are retold here after US7196244.

Data set [1] relates to TC3A transposase (Caenorhabditis elegans). The data set can be described thus: cell_activity. Conditions: ced-9 promoter; 0.1% with glh-2 promoter.
Data set [2] deals with T1, Mos1 transposase (Drosophila mauritiana) (UniProt Q7JQ07).
T1 sequence: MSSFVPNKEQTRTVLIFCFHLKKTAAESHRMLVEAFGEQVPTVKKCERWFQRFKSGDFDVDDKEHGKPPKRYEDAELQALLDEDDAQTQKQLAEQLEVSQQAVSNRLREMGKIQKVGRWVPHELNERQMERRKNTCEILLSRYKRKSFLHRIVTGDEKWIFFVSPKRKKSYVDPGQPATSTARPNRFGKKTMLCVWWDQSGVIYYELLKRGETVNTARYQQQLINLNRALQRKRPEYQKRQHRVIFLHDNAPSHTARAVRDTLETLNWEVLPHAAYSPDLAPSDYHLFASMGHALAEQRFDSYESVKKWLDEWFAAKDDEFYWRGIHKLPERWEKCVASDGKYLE
The data set can be described thus: cell_activity. Conditions: glh-2 promoter, C. elegans germline.

In turn, Tc3 element in unc-22(r750::Tc3) yielded an activity (% germline reversion) in data set [1] of 2.

“Mos1 transposon in integrated array oxIs25” came in with an activity (% chromosomes with catastrophic excision) in data set [2] of 20.9.
